Results published in the supplement of paper PMC7877785.
± gives the uncertainty stated by the source.

Assay: self-splicing fitness, log relative to wild type (ln ratio); higher = more splicing; Tetrahymena group I intron in knt gene, E. coli kanamycin selection, DiMSum; sequences stand for … in CUCUCU…GGAGGGAAAAGUUAUCAGGCAUGCACCUGGUAGCUAGUCUUUAAACCAAUAGAUUGCAUCGGUUUAAAAGGCAAGACCGUCAAAUUGCGGGAAAGGGGUCAACAGCCGUUCAGUACCAAGUCUCAGGGGAAACUUUGAGAUGGCCUUGCAAAGGGUAUGGUAAUAAGCUGACGGACAUGGUCCUAACCACGCAGCCAAGUCCUAAGUCAACAGAUCUUCUGUUGAUAUGGAUGCAGUUCACAGACUAAAUGUCGGUCGGGGAAGAUGUAUUCUUCUCAUAAGAUAUAGUCGGACCUCUCCUUAAUGGGAGCUAGCGGAUGAAGUGAUGCAACACUGGAGCCGCUGGGAACUAAUUUGUAUGCGAAAGUAUAUUGAUUAGUUUUGGAGUACUCGUGGUCG
Method in brief: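 Fitness was computed with DiMSum as the error-weighted combination of replicate fold changes, kanamycin versus none, each normalised to wild type. The library randomised all eight intron nucleotides of the P1ex region, with the intron placed in the knt kanamycin-resistance gene on pET-22b(+) in E. coli BL21(DE3). Six replicate transformations were grown overnight at 37°C or 30°C on LB agar with or without 25 μg/mL kanamycin, plus 100 μg/mL carbenicillin, 50 μM IPTG and 0.2% rhamnose. Pooled colonies were amplicon-sequenced on an Illumina HiSeq 2500.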

Sequence	self-splicing fitness (ln) (37 °C)	self-splicing fitness (ln) (30 °C)
GAUAAGCAAUAUUACGCGAU	-2.82 ± 0.26	
CAAGAGCAAUAUUACGAUUA	-0.907 ± 0.21	-1.92 ± 0.19
CUUGAGCAAUAUUACGCUAC	-2.02 ± 0.45	-2.82 ± 0.49
ACGUAGCAAUAUUACGAGUA	-1.07 ± 0.12	-3.15 ± 0.21
UGGCAGCAAUAUUACGAGAU		-1.46 ± 0.21
UAUAAGCAAUAUUACGGAGA	-2.33 ± 0.46	-3.11 ± 0.36
UGAUAGCAAUAUUACGAAAU	-2.19 ± 0.27	-2.83 ± 0.34
CCGGAGCAAUAUUACGGCUA	-0.58 ± 0.2	
CGGGAGCAAUAUUACGUGGA	-3.14 ± 0.23	-2.06 ± 0.15
UUAAAGCAAUAUUACGGCGG	0.0127 ± 0.13	0.463 ± 0.11
UUGAAGCAAUAUUACGAGUU	-1.58 ± 0.17	-3.34 ± 0.17
GCACAGCAAUAUUACGAUGU	-0.389 ± 0.088	-2.05 ± 0.079
CGAUAGCAAUAUUACGCCGG	-0.0292 ± 0.14	-0.546 ± 0.11
ACCUAGCAAUAUUACGCGAA	-1.99 ± 0.12	-3.01 ± 0.19
CACGAGCAAUAUUACGCACG	-1.15 ± 0.21	-2.13 ± 0.21
UAUCAGCAAUAUUACGGAAA	-0.253 ± 0.12	-0.825 ± 0.11
AGACAGCAAUAUUACGUACU	-0.36 ± 0.086	-0.834 ± 0.062
CUAGAGCAAUAUUACGUAUA		-3.08 ± 0.49
CGCAAGCAAUAUUACGCAUC	-2.66 ± 0.12	-2.57 ± 0.12
GCCUAGCAAUAUUACGUUUC	-0.802 ± 0.079	-2.03 ± 0.073
AGAAAGCAAUAUUACGGCUG	-0.414 ± 0.16	-0.141 ± 0.11
AGCCAGCAAUAUUACGAGCC	-0.75 ± 0.32	
CGAAAGCAAUAUUACGUUUU	-2.31 ± 0.18	-4.51 ± 0.24
CCUCAGCAAUAUUACGGACA	-3.15 ± 0.26	-3.54 ± 0.19
AGUGAGCAAUAUUACGUAAC	-1.67 ± 0.14	-4.68 ± 0.23
AAGCAGCAAUAUUACGCUUA	-1.24 ± 0.14	-1.9 ± 0.15

Sequence	self-splicing fitness (ln) (37 °C)	self-splicing fitness (ln) (30 °C)
ACUGAGCAAUAUUACGCAGC	-1.7 ± 0.42	
UAUUAGCAAUAUUACGAUGG	-0.174 ± 0.11	-1.24 ± 0.094
UUAGAGCAAUAUUACGGGGU	-2.06 ± 0.46	-2.83 ± 0.3
CCCGAGCAAUAUUACGGUGC	-2.77 ± 0.16	-4.61 ± 0.32
AACCAGCAAUAUUACGACGU	0.409 ± 0.06	-0.111 ± 0.046
UGUUAGCAAUAUUACGCCUC	-0.642 ± 0.41	
AGUCAGCAAUAUUACGGAGU	-0.578 ± 0.073	-1.63 ± 0.062
GUACAGCAAUAUUACGCUCG	-0.344 ± 0.14	-0.881 ± 0.13
UCCUAGCAAUAUUACGCGUC	-3.53 ± 0.42	-3.53 ± 0.35
UUGCAGCAAUAUUACGUGUA	-1.07 ± 0.1	-1.52 ± 0.11
AUGAAGCAAUAUUACGCUUU	-2.11 ± 0.21	-3.68 ± 0.2
UGUAAGCAAUAUUACGUACG	-0.333 ± 0.067	-0.346 ± 0.057
UCGUAGCAAUAUUACGGCAA	-0.888 ± 0.27	-2.52 ± 0.36
ACUUAGCAAUAUUACGAAUA	-1.76 ± 0.31	
CGCUAGCAAUAUUACGUUCG	-0.781 ± 0.089	-1.46 ± 0.067
GCACAGCAAUAUUACGCAAG	-2.51 ± 0.19	-3.59 ± 0.24
ACUCAGCAAUAUUACGGACA	-1.06 ± 0.12	-1.02 ± 0.1
AGGCAGCAAUAUUACGAGAU	-2.26 ± 0.2	-3.01 ± 0.15
CCGUAGCAAUAUUACGGAAG	-2.34 ± 0.41	-1.47 ± 0.17
GGGUAGCAAUAUUACGUGAG	0.074 ± 0.11	-0.474 ± 0.074
GUCUAGCAAUAUUACGGCGA	-0.132 ± 0.21	-0.49 ± 0.22
AGCCAGCAAUAUUACGAAGG	-2.92 ± 0.31	-3.89 ± 0.41
GCUAAGCAAUAUUACGUCGG	-0.876 ± 0.13	-1.33 ± 0.099
GCCUAGCAAUAUUACGCACU	0.143 ± 0.078	-0.602 ± 0.083
GAAGAGCAAUAUUACGCGAG	-2.16 ± 0.23	-2.82 ± 0.17
UGAAAGCAAUAUUACGCGUA	-0.174 ± 0.13	-1.31 ± 0.12

Sequence	self-splicing fitness (ln) (37 °C)	self-splicing fitness (ln) (30 °C)
UAGGAGCAAUAUUACGCUUG	0.65 ± 0.36	-1.18 ± 0.32
UAUUAGCAAUAUUACGACGA	-0.557 ± 0.23	-0.31 ± 0.18
CACUAGCAAUAUUACGUCGG	0.0907 ± 0.1	-1.25 ± 0.082
UCGAAGCAAUAUUACGGCCU	-1.77 ± 0.21	-2.16 ± 0.22
GCCGAGCAAUAUUACGUAGC	-1.84 ± 0.14	-2.02 ± 0.12
CGCCAGCAAUAUUACGGUGA	-1.84 ± 0.11	-1.98 ± 0.11
AAGAAGCAAUAUUACGCUAC	-1.93 ± 0.44	-2.18 ± 0.24
CCUCAGCAAUAUUACGCGAG	-1.76 ± 0.11	-2.89 ± 0.1
GAUGAGCAAUAUUACGCUGU	-2.35 ± 0.26	-3.68 ± 0.26
GGAUAGCAAUAUUACGGGCU	-0.442 ± 0.12	-2.29 ± 0.14
GUUAAGCAAUAUUACGCAUC	-0.951 ± 0.095	-2.3 ± 0.1
GGAUAGCAAUAUUACGACUU	0.847 ± 0.17	0.215 ± 0.18
ACUGAGCAAUAUUACGAACG	-1.77 ± 0.21	-2.48 ± 0.17
AUACAGCAAUAUUACGUAAA	-1.41 ± 0.087	-1.87 ± 0.091
ACCCAGCAAUAUUACGUCCA	-0.696 ± 0.16	-1.27 ± 0.12
GCGGAGCAAUAUUACGAUAA	-2.08 ± 0.35	
ACCCAGCAAUAUUACGAAGC	-0.523 ± 0.072	-0.907 ± 0.069
UCAAAGCAAUAUUACGGGGG	-1.49 ± 0.14	-2.55 ± 0.14
UUUGAGCAAUAUUACGGUGU	-2.7 ± 0.41	
GGUUAGCAAUAUUACGCACG	-0.507 ± 0.13	-0.656 ± 0.11
UUCUAGCAAUAUUACGAGGU	-1.53 ± 0.2	-3.27 ± 0.31
CAGCAGCAAUAUUACGGCAA	-1.45 ± 0.097	-1.35 ± 0.1
CCUAAGCAAUAUUACGUUCC	-1.8 ± 0.34	-3.6 ± 0.3
CACCAGCAAUAUUACGAUGA	-2 ± 0.099	-1.9 ± 0.091
UUCCAGCAAUAUUACGGUCC	-2.18 ± 0.17	-1.79 ± 0.15
CAUUAGCAAUAUUACGAACA	-0.317 ± 0.2	-3.7 ± 0.42
